Test: soluble on expression in E. coli; label from the status in PepcDB or PDB records

Row | Sequence | soluble on expression in E. coli
1 | MGSDKIHHHHHHMLQPHEMHLAGDLLDFLRDPSTAIARDFATQATLMRIASGATVFAEGDECSFFAILADGQIRVFKIGETGREITLYRFGRGESCILTTSCVLSNHQFPAIAVVEREATAFLVGQAIFRDWIERYSAWRDYVFQLLSRRLASVMAIIDEIAFRRVDVRLAAFLLRQAVGDPPTLNLTHQQIAAELGTSREVVSRILADFSEEGLISSSRGQITVCDRTRLYQRSEAR | not soluble
2 | MGSDKIHHHHHHMLMRDVIPQVLNRGTAMLTQDLLETPPQKTFHHAIDIYLKDSNAFMNTYFARYFEWQGICRERWFHECIHDNLLAAGGVFVTKRAHQEYVEETFPFQRVDCYLNTFQVKQCSAYLLFRFCVGGKPVSLGYQQIVFADRDKRISRFPHGIIERVKEYELVLPGLAS | not soluble
3 | MTGIYYLYLRQDDPKKATMRKLERFGLAKRVDIKGVGLKLVLTPYADIFLSREDAVLYEKYGLCVIEGSWNKIDSIKSLKFRIERRLPALLAANPVNYGKIGILSSVEATAAALYIIGYWDTAYALLSKFSWGLNFIKLNENPLNEYSTADRSEIKKIEESYFGLEHHHHHH | soluble
4 | MGSDKIHHHHHHMGSQAIVTGASGFIGSSVARMLAHKGWTVHGIGSSHLAMEAQEQIGIKHWVQQDLTLASLQGLADKTGDPDIIIHCAGGSSVQASISNPYEDFARTANATLNVLEFMRRYSPASALVYPSSAAVYGQTSSLPIAESSTPKPFSPYGHHKRIAEILCESYSLQWQLSVSIVRLFSVYGAGLKKQLLWDACQKAEQGAYSFFGSGAEIRDWLHVEDASNLLILAAEYASPECVIINGGSGVGTSINEILKLVGSHFALVSAPTFSGKAREGDPDSYVADITKAQALGFIPSFSLSDGIRQYVEWFKKECML | not soluble
5 | IDAPSFRDKRQADKLFEKDTMDWKVSINDKSIDYSQYKMPGKKGAFPYSNLDEQLAEYNELNGVYFSNGKRVELSELQATGTAKETHRVNSPLTKAKIAYLEMTDEERQLFMKWVSQQ | not soluble
6 | MNSSESSSNSEVSSSKTRTVKHAMGTSDNIPANPKRIVVLTNEGTEALLALGIKPVGAVKSWKGDPWYDYLKDDMKGVKNVGLETEPNVEAIAELKPDLIIGNKVRQEKIYDQLNAIAPTVFAESLAGNWKDNLTLYANAVNKADKGKEVIADFDKRVSDLKNKLGDQTNKTVSVVRFLSGESRIYYTDSFPGIILDQLGFKRPEKQVELFKKQKDQFTFSTDSKESIPDMDADVLFYFTYKADNAKENEKWANQWTSSSLWKNLKAVKSGNAHEVDDVVWTTAGGIKAANYLLDDIETYFLKTKLEHHHHHH | not soluble
7 | MTAALHIGHLSKSFQNTPVLNDISLSLDPGEILFIIGASGCGKTTLLRCLAGFEQPDSGEISLSGKTIFSKNTNLPVRERRLGYLVQEGVLFPHLTVYRNIAYGLGNGKGRTAQERQRIEAMLELTGISELAGRYPHELSGGQQQRAALARALAPDPELILLDEPFSALDEQLRRQIREDMIAALRANGKSAVFVSHDREEALQYADRIAVMKQGRILQTASPHELYRQPADLDAALFIGEGIVFPAALNADGTADCRLGRLPVQSGAPAGTRGTLLIRPEQYSLHPHSAPAASIHAVVLKTTPKARHTEISLRAGQTVLTLNLPSAPTLSDGISAVLHLDGPALFFPGNTLEHHHHHH | soluble
8 | RPQNTNSWQKDSIEGIDIMLAMDVSGSMQAMDFKPNRLEAAKDVAISFINNRPNDNIGMVTFAGESFTQCPLTTDHTVLLNMVQDLQ | soluble
9 | MKALTARQQEVFDLIRDHISQTGMPPTRAEIAQRLGFRSPNAAEEHLKALARKGVIEIVSGASRGIRLLQEEEEGLPLVGRVAADEPLLAQQHIEGHYQVDPSLFKPNADFLLRVSGMSMKDIGIMDGDLLAVHKTQDVRNGQVVVARIDDEVTVKRLKKQGNKVELLPENSEFKPIVVDLRQQSFTIEGLAVGVIRNGDWL | soluble
10 | MGSDKIHHHHHHMPIKALRLKAMQLKATRLKAKLLQARLLQASALLGTSLNLVAMAAPYNAINESIDDGFVEAGDILVIAIPATGYLASWLYDDFEGAKQLTFSVLTTQLIVEATKSTVGRYRPNSNVAGGSYKSFPSGHSAGAFSGAAFLQSRYGSRWGIPAYLGAGVVAASRVHGRRHYADDVLGGAGIAILVNQYFVERYDNQGLAVSLFPNDEGGLQFNLSMPLDGPLNGRAGPRAEKRAQPAVHGPKRHRFAVNLGFNMTDSLGMAGAKDLLPDSQLVDDHQPFSYLLYEYLDSSKTSLQLELSPNETRLFGTLSGEFELDGKQYQDGDSLYLAFKQWSLGSQYFYRFAPQGDWHFKLGGGLYAYWVELEVDYLTGGQYAGEGSLEVMPSIEGRTRYHIGGGLSADAMARFQAWSGNQLVAAEAGLSYALGEEWVMGLKYAYSEAKWDALNMEYQTDSIVLTVENRF | not soluble
11 | MGSDKIHHHHHHMNSGEYKYIWQASDWPNWRFDLAALAEPMAEVSRAQGLLMGRLADVGMALRDQASLAALTEDVVKTSEIEGEQLNVESVRSSIARRLGVDIGALAPVDRHVEGVVEMVLDATANCQALVSRERLFGWHAALFPTGYSGLSKINVGGWRDDATGPMQVVSGPIGRQRVHFEAPPADRLETETSRFLDWLNGTLNEPPLLKAGLGHLWFVTLHPFDDGNGRIARAIGDLLLARADGSPQRFYSLSAQIQRERKAYYDILERTQKRSMDVTEWLAWFLDTLHRAVDQAQHTLDAVLTKARFWQRWATTPLNERQVKLLNKLLDGFEGKLTSSKWAAIAKCSPDTALRDINDLLTRGVLRKSDAGGRSTSYELNDLPE | not soluble
12 | ADETLAEFHVEMGGCENCHADGEPSKDGAYEFEQCQSCHGSLAEMDDNHKPHDGLLMCADCHAPHEAKVGEKPTCDTCHDDGRTAK | soluble
13 | MSLKFTAIDFETANEKRNSPCSIGIVVVKDGHVVEKSHHLIRPKEMRFMPINIGIHGIRPAMVEKEPEFDKVWEKIKHYFDDTLVIAHNASFDISVLRKSAELYNIELPEFNYICTMKLARNFYKGIENAKLNTVNNFLGYEFRHHDALYDALACSNIMLSISKELKCKDITEISKLLGVTVGKVDSKGYKPSQTKGIAVRTSDRIYFSKKKSAFERLKADEFKNEVVVFTGRLDSMSRDEAMGLVRRLGGTAGSSVTKKTTILVTNMKNIKNLRREEMSNKLKRASDLNARGQNIKFLNEEEFLKIKEGHHHHHH | soluble
14 | MSANLPPAFKPIAHYIKIANENASRDPVIYYWSLLCMALGPVETTFDEISWKLLQTSIRLEKDHINDRDSLREYIDEPGGVVNNCQRAQNISMEIEQKNVSCEKLREKIAKINQKILIGKGKLSEVNEELSKKQNFEESLKQKIEIMELQINKNQSKKDKEVKSINVLIRLVAYRKLTLIKEVMDLFKVKIDGGPASEAITTKNCQCQLIDTIRGLHIPQITHIFNHSEAPTLTALQNLTHLFNVICKVLHFAPKYPILTNLQIINPIDQKSSIFTEKCWKKKADREKLIEGMSWLSKNISHLRESCGIPTMATDRILGTLEEWIRLVIRKETVFERPINSIFSPANLLIDYQIPNISYHS | not soluble
15 | MALEKEEEASQNGAFCVLDGLYCEEETGFVEDDLDDDGDLDFLEKSDESVVKFQFLPLLDMFLWDDDEILSLISKENETNPCFGEQILDGFLVSCRKEALDWVLRVKSHYGFTSLTAILAVNYFDRFMTSIKLQTDKPWMSQLVAVASLSLAAKVEEIQVPLLLDLQVEEARYLFEAKTIQRMELLILSTLQWRMHPVTPISFFDHIIRRFGSKWHQQLDFCRKCERLLISVIADTRFMRYFPSVLATAIMILVFEELKPCDEVEYQSQITTLLKVNQEKVNECYELLLEHNPSKKRMMNLVDQDSPSGVLDFDDSSNSSWNVSTTASVSSSSSSPEPLLKRRRVQEQQMRLPSINRMFLDVLSSPR | soluble
16 | MAHHHHHHMLHLHRCAAQGDWLFLKNLHLVLDWASVLEKELCAMPIPSAEFRLIITTEPHDSFPVVLLRMSAKVTIEAPPGMKQNLLQSYTTWDEAFLQGKTKTTSQVLFGLAWFHALLQERRGYIPQGWVKFYEFSSADLKSAADVLCTLSRDKMDWTTVRGLLQECIYGGRLENSHDERVLERLISRIFNDETLVSCDRRLYDDMRVPATNVHRAVVQFIREHLPDADSPSILSLPDNADRAVKEQFALKLTEDLHTVSHLAQVCVSATEAWRTLLAPVLELWKNSALEPEGNAATVSPGETKEDPMSIFFMRELELLVGIVSNLTETFYDLRCVVEGTLIPSPELREEGTELIGGRVPPRWLDLMDGPKDVKLWFALLRRRRDTMMEYAKRPFSPSTPFDLIDFLRPQTFLNALRLYTVRVSNEALVELMLVATPVGRTADRLGVGFTLKGKSIHLQGALLDAQGILSLPSASSPSSTPLSCDVWAAWMSKHNTEGLARIPIYTNAGRTAAIMDLFLSCDSDMAEKLLLGGVAAFLMSV | not soluble
17 | GPGSAEKKQKQHFYLTQEMPPRRDPERQRAKVAAATMAPSEHKKASLPPAKLRLNLGPFLPQKKKNRPPKTTEIDWGSEQTPRLQCSWHPQRRNGIVSFPVMMSYPVSCHCAAWGCHITRAYPTMTRQGAHRLASPKVGRPRRSTRKPDQK | soluble
18 | MGSDKIHHHHHHMKVSDIMTPDPITYHVPSSINEVIKVLIKYNVTGVPITDQSGHYAGFVSRRDVFANPRETQTAMVMRRSKAVYEDDEVRTAALEMLAQKKRHLTVVDRDGHVKGILTPQNFMKTIKENYGNVKVKEVMKETSVPIWYKTPLPAILTVMNVSGIFSFPVIDDNGTFVGLLVDRDIFDRIDLKFDSILSEMGIADDEDPWSWTGLRNVFKYVVERADIKLPKISADEIMVKNPTVVYANDKLSTAAELMIKYNYNQLPVLDDSHGIYGMLYDIEMLGVFQ | not soluble
19 | KHGPLHPIPNRPVLTRARASLPLVLYIDRFLGGVFSKRRIPKRTQFGPVEGPLVRGSELKDCYIHLKVSLDKGDRKERDLHEDLWFELSDETLCNWMMFVRPAQNHLEQNLVAYQYGHHVYYTTIKNVEPKQELKVWYAASYAEFVNQKIHD | soluble
20 | MDAVVATQTPAEVFDVVVVGGGPAGATAATDLARAGRRVALLDPEGRPKPCGGAIPPRLMSEFAIPDDLPCAQVSGARALAPSGRVVDMPITGAVVSMVDRAVFDPWLRARAHQAGACRLHGRFEGFDRQEDGALVVLWRPEGAAVANRIVARYVVGADGARSKVAALAVAGAAPPCVAAYHEIIRAPAAPAASAPTPATAAGPAYDPARCDVIYRGDISPDFYGWIFPHGETLSIGSGTAVKGFSLREAVALLRREAGLDGLEVVRREGAPIPLRPRKRWDNGRDVVLIGDAAGVVAPASGEGIYYAMASGKMAAEALGEALAGAGPAALAQVRRRFLKAHGKTFWSLGLLQRFWYRSDRWRESFVAICADRDVQRLVWQSYLTKDLARGNMGAYMRIFFKDVAHLIGIAKSLEHHHHHH | not soluble
21 | MSLMASAVAEENAERSKEGFIEGSEVNLLLRNFYFNRDFRKGQSSPAGGGYTEEWVQGFMANFSSGFTQGTLGVGIDAFAQLGVRLDSGGGRSGAGGSVDLLPYDDQGRPQDDYSRAGGAVKLRWYGTVLRVGDVFPETPVIQYGNSRLFPSSFRGFTLVNDSLAKGLTLQAGKLNSMTQPNSTSGSDDFYSFYTGRRIDSPWVAYAGGDYQATEHWSVSLYGSRQKDAWDQYYAGTSFNYPLDDKLSLLGGANYYKVKDQGRQVMGELDNDIWSVRGGFAYGPHQVLLSYQRNNGDDDFDYLRQTDSIYLDNSIQYSDFNSPKERSLMLRYDLDMAAFGVPGLSFMTRYGKGWDADYSNANSVYMRTDANGNPLTNQGRWERDVEVKYVVQGGAAKDLAFRVRQATVRSDSFESDLDEVRLIVEYPLQVLEGHHHHHH | not soluble
